From article PMC9505826, “A Peptide Inhibitor of the Human Cytomegalovirus Core Nuclear Egress Complex” (Pharmaceuticals, 2022) come the findings set out here.

The labels stand for the following.
B1: recombinant HCMV pUL50 (His-tagged) (natural protein)
chain: MEMNKVLHQDLVQATRRILKLGPSELRVTDAGLICKNPNYSVCDAMLKTDTVYCVEYLLSYWESRTDHVPCFIFKNTGCAVSLCCFVRAPVKLVSPARHVGEFNVLKVNESLIVTLKDIEEIKPSAYGVLTKCVVRKSNSASVFNIELIAFGPENEGEYENLLRELYAKKAASTS
notes: also called His-tagged pUL50
B2: Hook peptide (acetylated pUL53 hook peptide, residues 59-87) (peptide)
peptide: Ac-LTLHDLHDIFREHPELELKYLNMMKMAIT-NH2
notes: source: synthetic peptide (Fmoc solid-phase synthesis, HPLC purified)

Assay [1] deals with T1, Fluo-NLS-CPP (fluoresceinylated; pUL53 NLS 18-27 joined to HIV-1 Tat 47-59) (human cytomegalovirus (HCMV) | human …).
T1 construct: also called Fluo-NLS-CPP peptide; source: synthetic peptide (Fmoc solid-phase synthesis, HPLC purified)
Briefly: fluorescence polarisation; 25 nM N-terminally fluoresceinylated peptide; recombinant pUL50 in two-fold serial dilutions from 20 µM; 0.1 M PB, 150 mM NaCl, 1 mM TCEP, pH 7.2, 0.01% Tween 20. The conditions noted are these: both partners purified.

Assay [2] concerns the target B1. Kind of assay: ELISA; competition: pUL53 (1 µg/mL) coated on Immulon plates; peptide in serial dilutions from 10 µM together with His-tagged pUL50 (0.78 µg/mL) for 2.5 h; detection with anti-His-HRP; 0.1 M phosphate buffer pH 7.2, 0.1% BSA, 0.01% Tween 20. The conditions noted are these: both partners purified. On the technique in general: In an ELISA, binding on a coated surface is turned into a signal by an enzyme label.

By Kd is commonly meant the equilibrium constant for the complex coming apart. In general, IC50 refers to the concentration that gives 50% inhibition.

With B1, in assay [1], the Kd is above 10000 nM. On to B2, for which, in assay [2], the concentration for half-maximal inhibition (IC50) was 125 nM.
